Source: the Human Domainome abundance scans (Beltran et al. 2025)
± gives the uncertainty stated by the source.

B1: Calcium-binding protein 2, residues 155 to 219; numbered along this chain, Q9NPB3 (parent)
chain: RELRDAFREFDTNGDGRISVGELRAALKALLGERLSQREVDEILQDVDLNGDGLVDFEEFVRMMS

Variants of: B1
Test: abundance fitness (aPCA) (normalised: wild type 0, dead -1); higher = more abundant; growth selection in yeast, the domain comes from the species named
Conditions: Homo sapiens

Row | Variant | abundance fitness
1 | RELRDAFREFDTNGDGRISVGELRAALKALLGERLSQREVDEIVQDVDLNGDGLVDFEEFVRMMS | 0 ± 0.087
2 | RELRDAFREFDTNGDGRISVGELRAALKALLGERLSQREVDEIPQDVDLNGDGLVDFEEFVRMMS | -0.323 ± 0.17
3 | RELRDAFREFDTNGDGRISVGELRAALKALLGERLSQREVDEIHQDVDLNGDGLVDFEEFVRMMS | 0.097 ± 0.3
4 | RELRDAFREFDTNGDGRISVGELRAALKALLGERLSQREVDEIGQDVDLNGDGLVDFEEFVRMMS | -0.01 ± 0.071
5 | RELRDAFREFDTNGDGRISVGELRAALKALLGERLSQREVDEIWQDVDLNGDGLVDFEEFVRMMS | -0.496 ± 0.25
6 | RELRDAFREFDTNGDGRISVGELRAALKALLGERLSQREVDEITQDVDLNGDGLVDFEEFVRMMS | 0 ± 0.12
7 | RELRDAFREFDTNGDGRISVGELRAALKALLGERLSQREVDEIMQDVDLNGDGLVDFEEFVRMMS | -0.219 ± 0.21
8 | RELRDAFREFDTNGDGRISVGELRAALKALLGERLSQREVDEIDQDVDLNGDGLVDFEEFVRMMS | -0.064 ± 0.14
9 | RELRDAFREFDTNGDGRISVGELRAALKALLGERLSQREVDEIAQDVDLNGDGLVDFEEFVRMMS | 0.116 ± 0.067
10 | RELRDAFREFDTNGDGRISVGELRAALKALLGERLSQREVDEIKQDVDLNGDGLVDFEEFVRMMS | 0.055 ± 0.14
11 | RELRDAFREFDTNGDGRISVGELRAALKALLGERLSQREVDEIEQDVDLNGDGLVDFEEFVRMMS | -0.123 ± 0.14
12 | RELRDAFREFDTNGDGRISVGELRAALKALLGERLSQREVDEIRQDVDLNGDGLVDFEEFVRMMS | -0.178 ± 0.09
13 | RELRDAFREFDTNGDGRISVGELRAALKALLGERLSQREVDEIIQDVDLNGDGLVDFEEFVRMMS | 0.072 ± 0.15
14 | RELRDAFREFDTNGDGRISVGELRAALKALLGERLSQREVDEILQMVDLNGDGLVDFEEFVRMMS | -0.42 ± 0.076
15 | RELRDAFREFDTNGDGRISVGELRAALKALLGERLSQREVDEILQQVDLNGDGLVDFEEFVRMMS | -0.152 ± 0.089
16 | RELRDAFREFDTNGDGRISVGELRAALKALLGERLSQREVDEILQWVDLNGDGLVDFEEFVRMMS | -0.446 ± 0.08
17 | RELRDAFREFDTNGDGRISVGELRAALKALLGERLSQREVDEILQIVDLNGDGLVDFEEFVRMMS | -0.408 ± 0.12
18 | RELRDAFREFDTNGDGRISVGELRAALKALLGERLSQREVDEILQKVDLNGDGLVDFEEFVRMMS | -0.148 ± 0.13
19 | RELRDAFREFDTNGDGRISVGELRAALKALLGERLSQREVDEILQTVDLNGDGLVDFEEFVRMMS | 0.042 ± 0.1
20 | RELRDAFREFDTNGDGRISVGELRAALKALLGERLSQREVDEILQVVDLNGDGLVDFEEFVRMMS | -0.343 ± 0.083
21 | RELRDAFREFDTNGDGRISVGELRAALKALLGERLSQREVDEILQLVDLNGDGLVDFEEFVRMMS | -0.326 ± 0.1

Row | Variant | abundance fitness
22 | RELRDAFREFDTNGDGRISVGELRAALKALLGERLSQREVDEILQRVDLNGDGLVDFEEFVRMMS | -0.493 ± 0.066
23 | RELRDAFREFDTNGDGRISVGELRAALKALLGERLSQREVDEILQEVDLNGDGLVDFEEFVRMMS | -0.155 ± 0.078
24 | RELRDAFREFDTNGDGRISVGELRAALKALLGERLSQREVDEILQFVDLNGDGLVDFEEFVRMMS | -0.321 ± 0.11
25 | RELRDAFREFDTNGDGRISVGELRAALKALLGERLSQREVDEILQYVDLNGDGLVDFEEFVRMMS | -0.475 ± 0.22
26 | RELRDAFREFDTNGDGRISVGELRAALKALLGERLSQREVDEILQHVDLNGDGLVDFEEFVRMMS | -0.366 ± 0.16
27 | RELRDAFREFDTNGDGRISVGELRAALKALLGERLSQREVDEILQNVDLNGDGLVDFEEFVRMMS | -0.2 ± 0.11
28 | RELRDAFREFDTNGDGRISVGELRAALKALLGERLSQREVDEILQSVDLNGDGLVDFEEFVRMMS | -0.123 ± 0.069
29 | RELRDAFREFDTNGDGRISVGELRAALKALLGERLSQREVDEILLDVDLNGDGLVDFEEFVRMMS | 0.015 ± 0.064
30 | RELRDAFREFDTNGDGRISVGELRAALKALLGERLSQREVDEILDDVDLNGDGLVDFEEFVRMMS | -0.144 ± 0.092
31 | RELRDAFREFDTNGDGRISVGELRAALKALLGERLSQREVDEILMDVDLNGDGLVDFEEFVRMMS | -0.141 ± 0.092
32 | RELRDAFREFDTNGDGRISVGELRAALKALLGERLSQREVDEILHDVDLNGDGLVDFEEFVRMMS | -0.013 ± 0.22
33 | RELRDAFREFDTNGDGRISVGELRAALKALLGERLSQREVDEILEDVDLNGDGLVDFEEFVRMMS | -0.076 ± 0.092
34 | RELRDAFREFDTNGDGRISVGELRAALKALLGERLSQREVDEILSDVDLNGDGLVDFEEFVRMMS | -0.147 ± 0.096
35 | RELRDAFREFDTNGDGRISVGELRAALKALLGERLSQREVDEILIDVDLNGDGLVDFEEFVRMMS | -0.01 ± 0.13
36 | RELRDAFREFDTNGDGRISVGELRAALKALLGERLSQREVDEILFDVDLNGDGLVDFEEFVRMMS | -0.263 ± 0.097
37 | RELRDAFREFDTNGDGRISVGELRAALKALLGERLSQREVDEILPDVDLNGDGLVDFEEFVRMMS | -0.133 ± 0.073
38 | RELRDAFREFDTNGDGRISVGELRAALKALLGERLSQREVDEILWDVDLNGDGLVDFEEFVRMMS | -0.109 ± 0.076
39 | RELRDAFREFDTNGDGRISVGELRAALKALLGERLSQREVDEILGDVDLNGDGLVDFEEFVRMMS | -0.19 ± 0.12
40 | RELRDAFREFDTNGDGRISVGELRAALKALLGERLSQREVDEILYDVDLNGDGLVDFEEFVRMMS | -0.16 ± 0.12
41 | RELRDAFREFDTNGDGRISVGELRAALKALLGERLSQREVDEILRDVDLNGDGLVDFEEFVRMMS | 0.054 ± 0.072
42 | RELRDAFREFDTNGDGRISVGELRAALKALLGERLSQREVDEILTDVDLNGDGLVDFEEFVRMMS | 0.003 ± 0.067

Row | Variant | abundance fitness
43 | RELRDAFREFDTNGDGRISVGELRAALKALLGERLSQREVDEILVDVDLNGDGLVDFEEFVRMMS | -0.108 ± 0.068
44 | RELRDAFREFDTNGDGRISVGELRAALKALLGERLSQREVDEILADVDLNGDGLVDFEEFVRMMS | -0.069 ± 0.061
45 | RELRDAFREFDTNGDGRISVGELRAALKALLGERLSQREVDEILKDVDLNGDGLVDFEEFVRMMS | -0.215 ± 0.19
46 | RELRDAFREFDTNGDGRISVGELRAALKALLGERLSQREVDEILQDTDLNGDGLVDFEEFVRMMS | -0.041 ± 0.069
47 | RELRDAFREFDTNGDGRISVGELRAALKALLGERLSQREVDEILQDIDLNGDGLVDFEEFVRMMS | -0.204 ± 0.048
48 | RELRDAFREFDTNGDGRISVGELRAALKALLGERLSQREVDEILQDADLNGDGLVDFEEFVRMMS | -0.143 ± 0.055
49 | RELRDAFREFDTNGDGRISVGELRAALKALLGERLSQREVDEILQDKDLNGDGLVDFEEFVRMMS | -0.064 ± 0.11
50 | RELRDAFREFDTNGDGRISVGELRAALKALLGERLSQREVDEILQDLDLNGDGLVDFEEFVRMMS | -0.475 ± 0.049
51 | RELRDAFREFDTNGDGRISVGELRAALKALLGERLSQREVDEILQDCDLNGDGLVDFEEFVRMMS | -0.241 ± 0.088
52 | RELRDAFREFDTNGDGRISVGELRAALKALLGERLSQREVDEILQDDDLNGDGLVDFEEFVRMMS | -0.236 ± 0.053
53 | RELRDAFREFDTNGDGRISVGELRAALKALLGERLSQREVDEILQDNDLNGDGLVDFEEFVRMMS | -0.211 ± 0.06
54 | RELRDAFREFDTNGDGRISVGELRAALKALLGERLSQREVDEILQDMDLNGDGLVDFEEFVRMMS | -0.303 ± 0.088
55 | RELRDAFREFDTNGDGRISVGELRAALKALLGERLSQREVDEILQDPDLNGDGLVDFEEFVRMMS | -0.394 ± 0.049
56 | RELRDAFREFDTNGDGRISVGELRAALKALLGERLSQREVDEILQDHDLNGDGLVDFEEFVRMMS | 0.057 ± 0.12
57 | RELRDAFREFDTNGDGRISVGELRAALKALLGERLSQREVDEILQDEDLNGDGLVDFEEFVRMMS | -0.137 ± 0.056
58 | RELRDAFREFDTNGDGRISVGELRAALKALLGERLSQREVDEILQDFDLNGDGLVDFEEFVRMMS | -0.15 ± 0.051
59 | RELRDAFREFDTNGDGRISVGELRAALKALLGERLSQREVDEILQDQDLNGDGLVDFEEFVRMMS | 0.013 ± 0.1
60 | RELRDAFREFDTNGDGRISVGELRAALKALLGERLSQREVDEKLQDVDLNGDGLVDFEEFVRMMS | 0.053 ± 0.067
61 | RELRDAFREFDTNGDGRISVGELRAALKALLGERLSQREVDEWLQDVDLNGDGLVDFEEFVRMMS | -0.142 ± 0.056
62 | RELRDAFREFDTNGDGRISVGELRAALKALLGERLSQREVDEVLQDVDLNGDGLVDFEEFVRMMS | 0.01 ± 0.084
63 | RELRDAFREFDTNGDGRISVGELRAALKALLGERLSQREVDEALQDVDLNGDGLVDFEEFVRMMS | 0.254 ± 0.091

Row | Variant | abundance fitness
64 | RELRDAFREFDTNGDGRISVGELRAALKALLGERLSQREVDEFLQDVDLNGDGLVDFEEFVRMMS | -0.282 ± 0.29
65 | RELRDAFREFDTNGDGRISVGELRAALKALLGERLSQREVDEHLQDVDLNGDGLVDFEEFVRMMS | 0.161 ± 0.17
66 | RELRDAFREFDTNGDGRISVGELRAALKALLGERLSQREVDEYLQDVDLNGDGLVDFEEFVRMMS | -0.345 ± 0.33
67 | RELRDAFREFDTNGDGRISVGELRAALKALLGERLSQREVDEGLQDVDLNGDGLVDFEEFVRMMS | 0.123 ± 0.069
68 | RELRDAFREFDTNGDGRISVGELRAALKALLGERLSQREVDEMLQDVDLNGDGLVDFEEFVRMMS | -0.017 ± 0.074
69 | RELRDAFREFDTNGDGRISVGELRAALKALLGERLSQREVDEPLQDVDLNGDGLVDFEEFVRMMS | -0.032 ± 0.12
70 | RELRDAFREFDTNGDGRISVGELRAALKALLGERLSQREVDENLQDVDLNGDGLVDFEEFVRMMS | 0.053 ± 0.18
71 | RELRDAFREFDTNGDGRISVGELRAALKALLGERLSQREVDECLQDVDLNGDGLVDFEEFVRMMS | -0.009 ± 0.14
72 | RELRDAFREFDTNGDGRISVGELRAALKALLGERLSQREVDEQLQDVDLNGDGLVDFEEFVRMMS | 0.099 ± 0.11
73 | RELRDAFREFDTNGDGRISVGELRAALKALLGERLSQREVDESLQDVDLNGDGLVDFEEFVRMMS | 0.08 ± 0.063
74 | RELRDAFREFDTNGDGRISVGELRAALKALLGERLSQREVDERLQDVDLNGDGLVDFEEFVRMMS | 0.03 ± 0.065
75 | RELRDAFREFDTNGDGRISVGELRAALKALLGERLSQREVDETLQDVDLNGDGLVDFEEFVRMMS | 0.092 ± 0.084
76 | RELRDAFREFDTNGDGRISVGELRAALKALLGERLSQREVDEELQDVDLNGDGLVDFEEFVRMMS | 0.038 ± 0.12
77 | RELRDAFREFDTNGDGRISVGELRAALKALLGERLSQREVDWILQDVDLNGDGLVDFEEFVRMMS | -0.183 ± 0.087
78 | RELRDAFREFDTNGDGRISVGELRAALKALLGERLSQREVDVILQDVDLNGDGLVDFEEFVRMMS | -0.108 ± 0.088
79 | RELRDAFREFDTNGDGRISVGELRAALKALLGERLSQREVDSILQDVDLNGDGLVDFEEFVRMMS | -0.136 ± 0.077
80 | RELRDAFREFDTNGDGRISVGELRAALKALLGERLSQREVDQILQDVDLNGDGLVDFEEFVRMMS | -0.272 ± 0.1
81 | RELRDAFREFDTNGDGRISVGELRAALKALLGERLSQREVDYILQDVDLNGDGLVDFEEFVRMMS | -0.309 ± 0.29
82 | RELRDAFREFDTNGDGRISVGELRAALKALLGERLSQREVDPILQDVDLNGDGLVDFEEFVRMMS | -0.301 ± 0.098
83 | RELRDAFREFDTNGDGRISVGELRAALKALLGERLSQREVDRILQDVDLNGDGLVDFEEFVRMMS | -0.08 ± 0.089
